Seven compounds from US10344068B2, “Natriuretic polypeptides” (priority 2011, dated 2019) can be followed below.

Ends that are not written are not given here.

What all share (type): cell-based
For test [1], the system named is Human cardiac fibroblasts. Nature of the test: cGMP production in human cardiac fibroblasts (competitive RIA cGMP kit). Conditions: human cardiac fibroblasts (CFs); 10^-6 M, 10^-8 M or 10^-10 M of NP or cANG for 10 minutes. How it is done:
cANG was custom-synthesized to have the sequence set forth in FIG. 4 and confirmed by high performance liquid chromatography and mass spectroscopy to have a molecular weight of 3080.6 Da. Human cardiac fibroblasts (CFs; ScienCell, San Diego, Calif.) were cultured in the manufacturer's fibroblast media (ScienCell, San Diego, Calif.) supplemented with fibroblast growth serum (FGS), fetal bovine serum (FBS), and Pen/Strep. Cells were treated at 80-90% confluency. Only cell passages 1 through 4 were used for experiments. To perform a cyclic GMP assay, the cells were treated as described previously (Huntley et al., J. Cell. Physiol., 209(3):943-9 (2006)). Briefly, cells were incubated in Hank's balanced salt solution (Invitrogen, Carlsbad, Calif.) containing 20 mmol/L N-[2-hydroxyethyl]piperazine-N′[2-ethanesulfonic acid], 0.1% bovine serum albumin, and 0.5 mmol/L 3-isobutyl-1-methylzanthine (Sigma, St. Louis, Mo.). Treated cells received 10^−6 M, 10^−8M, or 10^−10 M of NP or cANG for 10 minutes. Cells were lysed in 6% TCA and sonicated for 10 minutes. The samples were ether extracted four times in four volumes of ether, dried, and reconstituted in […] of cGMP assay buffer.
The samples were assayed using a competitive RIA cGMP kit (Perkin-Elmer, Boston, Mass.). Briefly, samples and standards were incubated with […] anti-human cGMP polyclonal antibody and I^125-antigen for 18 hours. Cyclic GMP assay buffer was added to the samples, and they were centrifuged for 20 minutes at 2500 rpm. The free fraction was aspirated off, and the bound fraction was counted and concentrations determined. Samples were corrected for dilution factors and protein concentration, and values were expressed as pmoles/mL.

Test [2] concerns the target T1, NPR-A (GC-A) (Homo sapiens, UniProt P16066).
T1 construct: expressed in transfected cells; host or cells: HEK 293
T1 sequence (P16066 33-1061): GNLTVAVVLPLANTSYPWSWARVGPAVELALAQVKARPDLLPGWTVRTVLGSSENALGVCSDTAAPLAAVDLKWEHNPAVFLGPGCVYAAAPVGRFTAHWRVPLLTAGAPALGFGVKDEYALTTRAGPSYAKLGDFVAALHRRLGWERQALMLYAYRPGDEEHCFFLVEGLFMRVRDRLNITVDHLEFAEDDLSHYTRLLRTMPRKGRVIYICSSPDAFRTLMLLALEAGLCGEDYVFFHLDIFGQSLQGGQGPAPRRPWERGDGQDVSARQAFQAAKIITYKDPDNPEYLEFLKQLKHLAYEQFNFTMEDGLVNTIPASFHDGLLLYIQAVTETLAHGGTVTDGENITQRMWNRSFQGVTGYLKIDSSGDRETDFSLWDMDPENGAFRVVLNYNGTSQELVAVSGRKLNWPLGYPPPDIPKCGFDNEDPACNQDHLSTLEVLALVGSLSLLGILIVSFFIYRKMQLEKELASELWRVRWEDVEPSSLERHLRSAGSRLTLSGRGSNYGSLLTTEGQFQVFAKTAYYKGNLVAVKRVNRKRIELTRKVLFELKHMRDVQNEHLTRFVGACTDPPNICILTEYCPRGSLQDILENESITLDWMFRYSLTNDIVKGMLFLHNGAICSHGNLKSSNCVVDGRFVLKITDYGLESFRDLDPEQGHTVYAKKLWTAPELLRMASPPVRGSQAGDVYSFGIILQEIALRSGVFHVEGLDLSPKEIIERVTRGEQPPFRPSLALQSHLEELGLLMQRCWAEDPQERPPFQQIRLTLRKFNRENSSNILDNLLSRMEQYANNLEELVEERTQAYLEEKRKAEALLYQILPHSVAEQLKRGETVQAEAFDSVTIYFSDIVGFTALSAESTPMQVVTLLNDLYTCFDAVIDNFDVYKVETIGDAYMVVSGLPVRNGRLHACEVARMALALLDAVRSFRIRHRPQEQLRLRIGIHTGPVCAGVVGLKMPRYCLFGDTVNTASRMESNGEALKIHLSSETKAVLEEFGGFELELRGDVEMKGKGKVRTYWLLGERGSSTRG
The experiment in a line: cGMP production in HEK 293 cells stably transfected to express NPR-A (GC-A). Conditions: NPR-A+ HEK 293 cells; 10^-10 M, 10^-8 M or 10^-6 M for 10 minutes. How it is done: (§1) HEK 293 cells were stably transfected to express either NPR-A (GC-A) or NPR-B (GC-B) using Lipofectamine (Invitrogen, Grand Island, N.Y.). Transfected cells were maintained in Dulbecco's modified Eagle's medium supplemented with 10% fetal bovine serum, 100 U/mL penicillin, 100 U/mL streptomycin, and 250 μg/mL G418. The reagents were obtained from Invitrogen (Grand Island, N.Y.).
(§2) The following was performed to carry out cell stimulation and cGMP assays. Cells were plated in 6-well plates and treated as described elsewhere (Tsuruda et al., Circulation Research, 91:1127-1134 (2002)). Briefly, cells were incubated in Hank's balanced salt solution (Invitrogen, Carlsbad, Calif.) containing 20 mmol/L N-[2-hydroxyethyl]piperazine-N′[2-ethanesulfonic acid], 0.1% bovine serum albumin, and 0.5 mmol/L 3-isobutyl-1-methylzanthine (Sigma, St. Louis, Mo.). Treated cells received 10^−10 M, 10^−8M, or 10^−6 M of either BNP-Ang1-7 or Ang1-7BNP for 10 minutes. Cells were lysed in 300 μL 6% TCA and sonicated for 10 minutes. The samples were ether extracted four times in 4 volumes of ether, dried, and reconstituted in 500 μL cGMP assay buffer. The samples were assayed using a competitive RIA cGMP kit (Perkin-Elmer, Boston, Mass.) as described elsewhere (Steiner et al., J. Biol. Chem., 247:1106-1113 (1972)). Samples were corrected for dilution factors and protein concentration, and values were expressed as pmol cGMP/well. There was no cross-reactivity with ANP, BNP, CNP, and Endothelin-1, and less than 0.001 percent cross-reactivity with cAMP, GMP, GDP, ATP, and GTP.

For test [3], the target named is T2, NPR-B (GC-B) (Homo sapiens, UniProt P20594).
T2 construct: expressed in transfected cells; host or cells: HEK 293
T2 sequence (P20594 23-1047): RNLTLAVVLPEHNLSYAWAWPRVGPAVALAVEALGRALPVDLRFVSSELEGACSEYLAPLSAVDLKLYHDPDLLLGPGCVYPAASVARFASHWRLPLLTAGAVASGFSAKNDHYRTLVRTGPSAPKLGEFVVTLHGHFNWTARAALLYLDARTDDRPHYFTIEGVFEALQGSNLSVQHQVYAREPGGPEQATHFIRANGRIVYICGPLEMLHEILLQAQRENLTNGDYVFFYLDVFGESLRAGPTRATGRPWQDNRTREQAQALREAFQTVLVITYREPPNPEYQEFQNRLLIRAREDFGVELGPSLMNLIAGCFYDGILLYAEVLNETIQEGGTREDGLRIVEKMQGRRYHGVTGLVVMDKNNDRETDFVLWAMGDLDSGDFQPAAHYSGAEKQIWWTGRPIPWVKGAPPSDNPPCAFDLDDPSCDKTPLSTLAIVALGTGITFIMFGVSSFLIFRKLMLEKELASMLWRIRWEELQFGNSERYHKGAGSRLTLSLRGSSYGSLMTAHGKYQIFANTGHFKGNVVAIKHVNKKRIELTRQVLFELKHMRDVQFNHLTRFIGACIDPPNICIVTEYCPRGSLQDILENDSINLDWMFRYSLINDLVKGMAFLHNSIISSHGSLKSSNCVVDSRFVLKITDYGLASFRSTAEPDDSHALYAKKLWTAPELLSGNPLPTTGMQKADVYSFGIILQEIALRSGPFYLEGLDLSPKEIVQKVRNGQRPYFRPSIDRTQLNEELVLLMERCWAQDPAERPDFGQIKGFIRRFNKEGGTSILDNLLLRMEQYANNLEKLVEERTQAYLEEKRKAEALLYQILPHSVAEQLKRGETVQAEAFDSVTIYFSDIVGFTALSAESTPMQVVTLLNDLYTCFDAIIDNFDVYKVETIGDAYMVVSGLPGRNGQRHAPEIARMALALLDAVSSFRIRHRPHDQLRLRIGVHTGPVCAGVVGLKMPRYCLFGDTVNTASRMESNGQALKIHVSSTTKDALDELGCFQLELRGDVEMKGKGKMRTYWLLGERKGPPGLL
The experiment in a line: cGMP production in HEK 293 cells stably transfected to express NPR-B (GC-B). Conditions: NPR-B+ HEK 293 cells; 10^-10 M, 10^-8 M or 10^-6 M for 10 minutes. How it is done:
as §1, §2

B-type natriuretic peptide [BNP]: the cGMP production result in test [1] is given as “resulted in cGMP production”; in test [2] it was “induced cGMP production”; in test [3], “Minimal cGMP production”.
Turning to angiotensin-(1-7) [Ang1-7], the cGMP production result in test [2] and in test [3] was “did not induce cGMP production” throughout.
With “C-type natriuretic peptide (GLSKGCFGLKLDRIGSMSGLGC) [CNP]”, the cGMP production result in test [1] is on record as “resulted in cGMP production”.
On the same count and under the same terms, under “cANG: chimeric polypeptide containing an N-terminus and ring structure of CNP and a C-terminal Ang-(1-7) (GLSKGCFGLKLDRIGSMSGLGCDRVYIHP; not fully specified (bridges); cysteine pairing not given here)” stands “resulted in cGMP production”.
For “Ang1-7BNP: chimeric polypeptide containing an N-terminal Ang-(1-7) and a ring structure and C-terminus of BNP”, the cGMP production entry is on record as “induced cGMP production” in test [2] and “Neither BNP-Ang1-7 nor Ang1-7BNP induced cGMP production” in test [3].
With `CC[C@H](C)[C@@H]1NC(=O)[C@H](CCCNC(=N)N)NC(=O)[C@H](CC(=O)O)NC(=O)[C@H](CCSC)NC(=O)[C@H](CCCNC(=N)N)NC(=O)CNC(=O)CNC(=O)[C@H](Cc2ccccc2)NC(=O)[C@@H](NC(=O)[C@H](CO)NC(=O)[C@H](CO)NC(=O)[C@H](CCCNC(=N)N)NC(=O)[C@H](CCCNC(=N)N)NC(=O)[C@H](CC(C)C)NC(=O)[C@@H](N)CO)CSSC[C@@H](C(=O)N[C@@H](CC(N)=O)C(=O)N[C@@H](CO)C(=O)N[C@@H](Cc2ccccc2)C(=O)N[C@@H](CCCNC(=N)N)C(=O)N[C@@H](Cc2ccc(O)cc2)C(=O)O)NC(=O)CNC(=O)[C@H](CC(C)C)NC(=O)CNC(=O)[C@H](CO)NC(=O)[C@H](CCC(N)=O)NC(=O)[C@H](C)NC(=O)CNC1=O` [ANP, atrial natriuretic peptide], in test [1], the cGMP production result is “resulted in cGMP production”.
Regarding “BNP-Ang1-7: chimeric polypeptide containing an N-terminus and ring structure of BNP and a C-terminal Ang-(1-7) (SPKMVQGSGCFGRKMDRISSSSGLGCDRVYIHP; not fully specified (bridges); cysteine pairing not given here)”, the figures for the cGMP production result in test [2] and in test [3] were “induced cGMP production” and “Neither BNP-Ang1-7 nor Ang1-7BNP induced cGMP production”, respectively.
